Literature values, collected in paper PMC12083247.

Assays:
calpain (Homo sapiens) = calpain (Homo sapiens) (UniProt P07384)
S100A10 (Homo sapiens) = S100A10 (Homo sapiens) (UniProt P60903)
Sequence of UniProt P60903 (P60903 whole entry): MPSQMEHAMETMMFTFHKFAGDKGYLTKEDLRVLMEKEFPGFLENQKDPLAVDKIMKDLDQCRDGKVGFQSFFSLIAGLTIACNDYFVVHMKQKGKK

Sequence of UniProt P07384 (P07384 2-714): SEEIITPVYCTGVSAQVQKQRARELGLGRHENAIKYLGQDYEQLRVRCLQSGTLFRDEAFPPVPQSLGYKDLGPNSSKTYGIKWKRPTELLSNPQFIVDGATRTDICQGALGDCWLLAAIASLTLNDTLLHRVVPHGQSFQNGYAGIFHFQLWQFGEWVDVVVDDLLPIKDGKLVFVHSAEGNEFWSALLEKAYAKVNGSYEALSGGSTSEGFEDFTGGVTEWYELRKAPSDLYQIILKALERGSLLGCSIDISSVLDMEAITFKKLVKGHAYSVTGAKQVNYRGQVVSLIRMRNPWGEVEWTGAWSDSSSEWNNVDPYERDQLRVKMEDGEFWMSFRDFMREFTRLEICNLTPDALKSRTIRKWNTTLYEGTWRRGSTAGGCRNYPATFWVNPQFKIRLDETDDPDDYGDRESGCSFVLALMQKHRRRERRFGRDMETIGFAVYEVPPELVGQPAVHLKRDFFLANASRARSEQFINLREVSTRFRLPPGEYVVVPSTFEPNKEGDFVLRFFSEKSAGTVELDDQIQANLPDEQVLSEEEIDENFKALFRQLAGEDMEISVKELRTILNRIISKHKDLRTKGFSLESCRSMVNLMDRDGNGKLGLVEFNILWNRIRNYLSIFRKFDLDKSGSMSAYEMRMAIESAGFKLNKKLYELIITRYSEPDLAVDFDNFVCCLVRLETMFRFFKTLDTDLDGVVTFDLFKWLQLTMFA

Ki (calpain (Homo sapiens)) | Kd (S100A10 (Homo sapiens)) | Substance
15 nM | – | calpastatin domain I (from UniProt P20810)
– | 13 nM | annexin A2 N-terminal 10-12 residues (from UniProt P07355)
